Consider one substance from US20220267427A1.

The target in assay [1] is fCK18 in apoptosis-induced HepG2 cell culture supernatant (human) (UniProt P05783). The experiment in a line: commercial fCK18 kit ELISA with M30 conjugate; fCK18 2.23 ng/mL. (In general: ELISA stands for enzyme-linked immunosorbent assay.)
The target is the same in assay [2]. The experiment in a line: commercial fCK18 kit ELISA with M30 conjugate; fCK18 0.28 ng/mL.
Assay [3] has the same target. The experiment in a line: commercial fCK18 kit ELISA with M30 conjugate; fCK18 60.73 ng/mL.
The target is the same in assay [4]. The experiment in a line: commercial fCK18 kit ELISA with M30 conjugate; fCK18 0.09 ng/mL.
Assay [5] has the same target. The experiment in a line: commercial fCK18 kit ELISA with M30 conjugate.
Assay [6] has the same target. The experiment in a line: commercial fCK18 kit ELISA with M30 conjugate; fCK18 20.27 ng/mL.
Assay [7] shares this target. The experiment in a line: commercial fCK18 kit ELISA with M30 conjugate; fCK18 182.28 ng/mL.
Assay [8] shares this target. The experiment in a line: commercial fCK18 kit ELISA with M30 conjugate; fCK18 0.74 ng/mL.
For assay [9] the target is unchanged. The experiment in a line: commercial fCK18 kit ELISA with M30 conjugate; fCK18 6.79 ng/mL.

Chain of fCK18 in apoptosis-induced HepG2 cell culture supernatant (human) (P05783 239-397): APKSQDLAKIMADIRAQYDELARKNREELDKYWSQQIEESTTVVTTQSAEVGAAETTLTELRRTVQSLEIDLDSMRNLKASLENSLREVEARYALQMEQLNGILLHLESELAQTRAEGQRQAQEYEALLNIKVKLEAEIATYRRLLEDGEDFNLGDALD

Consider M30 antibody, for which the S/N ratio in [1] is 2.4; in assay [2] it was 1.2; in [3], 37.5; in [4], 1.1; in [6], 12.8; in [7], 48.3. Further, the S/N ratio in [8] is 1.5; in assay [9], 5.1. Moreover, the fCK18 concentration detectable (S/N ratio of 2 or more) in assay [5] was above 2.23 ng/mL.
